T1: CD81 (endogenous, human cells) (human (endogenous in Daudi, Ramos, …, UniProt P60033 1-236))
T1 sequence: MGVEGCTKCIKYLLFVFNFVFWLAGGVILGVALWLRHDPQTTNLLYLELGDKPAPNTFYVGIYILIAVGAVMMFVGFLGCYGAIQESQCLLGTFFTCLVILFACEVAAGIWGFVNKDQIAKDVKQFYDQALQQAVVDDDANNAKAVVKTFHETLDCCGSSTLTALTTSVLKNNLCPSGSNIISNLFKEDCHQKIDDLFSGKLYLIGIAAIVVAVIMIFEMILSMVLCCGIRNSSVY

B1: CD81 (endogenous, human cells) (natural protein)
chain: T1 sequence
B2: EWI-2wint with the C-terminal FLAG epitope, produced by furin cleavage of EWI-2FLAG^fur in Huh-7 cells (domain or fragment)
chain: QAPTSPPRMTVHEGQELALGCLARTSTQKHTHLAVSFGRSVPEAPVGRSTLQEVVGIRSDLAVEAGAPYAERLAAGELRLGKEGTDRYRMVVGGAQAGDAGTYHCTAAEWIQDPDGSWAQIAEKRAVLAHVDVQTLSSQLAVTVGPGERRIGPGEPLELLCNVSGALPPAGRHAAYSVGWEMAPAGAPGPGRLVAQLDTEGVGSLGPGYEGRHIAMEKVASRTYRLRLEAARPGDAGTYRCLAKAYVRGSGTRLREAASARSRPLPVHVREEGVVLEAVAWLAGGTVYRGETASLLCNISVRGGPPGLRLAASWWVERPEDGELSSVPAQLVGGVGQDGVAELGVRPGGGPVSVELVGPRSHRLRLHSLGPEDEGVYHCAPSAWVQHADYSWYQAGSARSGPVTVYPYMHALDTLFVPLLVGTGVALVTGATVLGTITCCFMKRLRKR

How the values were obtained:
[1] = molecular target: HCV E1E2 heterodimers (expressed from recombinant adenovirus Ad/E1E2p7NS2) (hepatitis C virus); assay: pull-down; E1E2 on mAb H53 beads; Huh-7/pcDNA3.1 cells lysed in Bj/EDTA, ratio of the CD81 band to that in TX/EDTA
[2] = molecular target: HCV E1E2 heterodimers (expressed from recombinant adenovirus Ad/E1E2p7NS2) (hepatitis C virus); assay: pull-down; E1E2 on mAb H53 beads; Huh-7/EWI-2FLAG^fur cells lysed in Bj/EDTA, ratio of the CD81 band to that in TX/EDTA
[3] = molecular target: T1, CD81 (endogenous, human cells); assay: cell-based or functional assay

Binder | ratio [CD81 band intensity in E1E2 IP in Bj/EDTA buffer]/[CD81 band intensity in E1E2 IP in TX/EDTA buffer] [1] | ratio [CD81 band intensity in E1E2 IP in Bj/EDTA buffer]/[CD81 band intensity in E1E2 IP in TX/EDTA buffer] [2] | inhibition of the infectivity of HCVcc expressing Renilla luciferase on Huh-7 cells expressing EWI-2FLAG^fur (clone A6), relative to Huh-7 cells; the pair that is blocked: HCV glycoproteins with CD81 [3] [%]
B1 | 0.84 | 0.27 | –
B2 | – | – | 80

— paper PMC2270906, “The CD81 Partner EWI-2wint Inhibits Hepatitis C Virus Entry” (PLoS ONE, 2008)
